Assay: protein stability index of a GFP-peptide fusion (GPS, HEK-293T) (PSI 1-6); higher = more stable
Conditions: c terminus: native
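Further: lentivirally expressed fusion library, cells FACS-sorted into six equal-sized GFP/DsRed ratio bins, PSI computed from sequencing read fractions per bin weighted by bin number.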

**Q.** With CQPISFSGFGAEDDDLGGLGLGPF [POLD2 addF] as the protein, how does the protein stability index (parent: NP_006221.1) read?
**A.** Its protein stability index is 3.13.

**Q.** With LPALFTDLYSQEITAEEAREALPF [SNF8 addF] as the protein, how does the protein stability index (parent: NP_009172.2) read?
**A.** Its protein stability index is 4.24.

**Q.** For DGWIRVSSDNVADLHEKYSGSTPF [PSMB5 addF], which protein stability index (parent: NP_002788.1) is on record?
**A.** The protein stability index was 3.79.

**Q.** With HSLRAVSTDPPHHDHHDEFCLMPF [BEX2 addF] as the protein, how does the protein stability index (parent: NP_116010.1) read?
**A.** The protein stability index was 3.66.

**Q.** Which protein stability index (parent: NP_015628.1) does the source give for EQRNSRWNTVLRAVKAKTHHLEPF [TRPA1 addF] here?
**A.** The protein stability index was 4.28.

From the supplement of paper PMC10567573
